The target of this assay is MBP-TrkB-454-821 (Rattus norvegicus (Rat), UniProt Q63604). Nature of the assay: pull-down (MBP-TrkB on amylose resin, GST-ActI-SIPA1L2 prey, immunoblot). Background: Immunoblotting shows a protein as a band on a membrane.
Chain of MBP-TrkB-454-821 (Q63604 454-821): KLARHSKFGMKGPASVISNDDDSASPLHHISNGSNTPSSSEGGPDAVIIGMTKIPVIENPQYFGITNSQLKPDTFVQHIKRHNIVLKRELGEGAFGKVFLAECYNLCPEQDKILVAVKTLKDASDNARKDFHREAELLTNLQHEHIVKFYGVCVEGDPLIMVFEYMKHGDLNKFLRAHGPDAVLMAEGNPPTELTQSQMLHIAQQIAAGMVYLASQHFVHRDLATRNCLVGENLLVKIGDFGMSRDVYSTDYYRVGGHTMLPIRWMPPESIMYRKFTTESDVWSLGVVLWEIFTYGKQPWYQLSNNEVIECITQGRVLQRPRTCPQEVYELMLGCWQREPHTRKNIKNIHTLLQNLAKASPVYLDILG

B1: GST-ActI-SIPA1L2-1-624 (protein)
chain: MSDPRPSQAEKHKLGRAASKFKDPSRAMQSDDYFARKFKAINGSMGPATLNTSSLSEGGGGGGGPANGTPAVPKMGVRARVSEWPPKKDCSKDLACKTLWESRSQSSYESATSIIQNGQNDQVDRQQEEQLDLDFVEAKYTIGDIFVHSPQRGLHPIRQRSNSDITISDIDTEDVLDQHAVNPNTGAALHREYGSTSSIDRQGLSGENVFAMLRGYRIESYDPKVTSSFGFPDFFPCDTAISPSLHAAAQISRGEFVRISGLDYMDGGLLMGRDRDKPFKRRLKSESVETSLFRKLRTVKSEHETFKFTSDLEEGRLDRGIRPWSCQRCFAHYDVQSILFNINEAMATRASVGKRKNITTGASAASQTPVPVGPAGGCESPLGSKEDLNAKENPDADEGDGKSNDLVLSCPYFRNETGGEGDRRIALSRANSASFSSGESCSFESSLSSHCTNAGVSVLEVPRENQPIHREKVKRYIIEHVDLGAYYYRKFFYGKEHQNYFGIDENLGPVAVSIRREKVEDPREKEGSQFNYRVAFRTSELTTLRGAILEDAVPSTARHGTARGLPLKEVLEYVIPELSIPCLRQAANSPKVPEQLLKLDEQGLSFQHKIGILYCKAGQSTEEE
B1: the binding result was “binds”.
